# Entries after “also recorded” stand apart in the source; their conditions may differ.
# Legend:
# [1] = Intravenous iron administration (iron loading) in a hemodialysis patient, serial serum profiling
# From the text: Serum samples were obtained from 40 hemodialysis patients before and after hemodialysis. All patients were receiving hemodialysis treatment three times a week. In addition, serum samples were collected from patients with acute pyelonephritis (two patients), pneumonia (two patients), and sepsis (two patients), as well as from 16 healthy volunteers with normal renal function. Serial samples of serum and urine obtained from two patients with acute pyelonephritis and two hemodialysis patients who had received intravenous iron administration for iron deficiency were also analyzed. Red blood cell (RBC) count, hemoglobin (Hb), hematocrit (Ht), plasma iron, and ferritin were evaluated for the clinical assessment of iron status and anemia. Serum samples were separated by centrifugation (3,000 rpm) and stored at −80° C. until assayed. Informed consent for the analysis of the protein profiling of serum and/or urine was obtained from all the participants.
# For preliminary trials, multiple types of protein chips were used with various surface characteristics, which included weak cation exchange, strong anion exchange, and immobilized metal affinity capture for protein molecules that bind divalent cationic copper. The present inventor eventually chose the mobilized metal affinity capture ProteinChip® array (IMAC 30-Cu) for the entire study because of its reproducibility in detecting protein species from serum and urine. SELDI analysis was performed according to the manufacturer's manual, with some modifications. In brief, serum and urine samples were diluted 20-fold and 10-fold, respectively, with binding buffer (phosphate buffered saline, pH 7.4). Using a bioprocessor, 40 μl of diluted samples were applied onto different arrays of an IMAC 30-Cu chip pretreated with 100 mM copper sulfate binding buffer and the chip was incubated at room temperature for 30 min with constant horizontal shaking. For confirmation of the reproducibility, each sample was applied to two separate spots on an IMAC 30-Cu chip. Unbound proteins were removed by washing three times with binding buffer for 5 min. […] Next, the arrays were analyzed using the Ciphergen ProteinChip® Reader PBS II. The proteins with CHCA were ionized and their molecular masses were determined by TOF analysis. The mass-to-charge ratio (m/z) of each of the proteins/peptides captured on the array surface was determined according to externally calibrated standards: Arg8-vasopressin (1,084.25 Da), somatostatin (1,637.9 Da), dynorphin (2,147.5 Da), bovine insulin beta-chain (3,495.94 Da), human insulin (5,807.65 Da), bovine ubiquitin (8,564.8 Da), and bovine cytochrome C (12,230.9 Da). […]
# IL-6 receptor = target: T1, IL-6 receptor (Homo sapiens, UniProt P08887); assay: Tocilizumab treatment of two Castleman's disease cases, serum and urine hepcidin monitored by SELDI-TOF-MS; assay type: in vivo
# T1 construct: before and after tocilizumab treatment in two Castleman's disease cases; from tissue; host or cells: patients with Castleman's disease (in vivo treatment)
# T1 sequence (P08887 20-468): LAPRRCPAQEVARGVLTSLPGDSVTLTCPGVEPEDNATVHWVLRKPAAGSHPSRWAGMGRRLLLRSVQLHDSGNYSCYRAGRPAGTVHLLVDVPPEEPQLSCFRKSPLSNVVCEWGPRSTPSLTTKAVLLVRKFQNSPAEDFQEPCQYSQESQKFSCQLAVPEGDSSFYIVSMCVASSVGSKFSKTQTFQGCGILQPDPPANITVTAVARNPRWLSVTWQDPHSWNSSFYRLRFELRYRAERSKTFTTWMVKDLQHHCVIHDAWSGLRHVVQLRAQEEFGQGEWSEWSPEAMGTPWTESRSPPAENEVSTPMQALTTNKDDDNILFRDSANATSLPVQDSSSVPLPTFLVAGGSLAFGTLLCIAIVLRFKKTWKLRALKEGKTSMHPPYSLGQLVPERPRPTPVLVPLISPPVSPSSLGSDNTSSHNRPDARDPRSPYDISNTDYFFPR
# Procedure: The present inventor monitored serum and urine hepcidin before and after tocilizumab treatment in two Castleman's disease cases who began treatment with tocilizumab (registered trademark: Actemra), from 7 days before treatment to 14 days after the start of the treatment. The measurement of hepcidin was performed in the manner described in Example 1.
# [2] = Clearance of serum peptides by hemodialysis (SELDI-TOF-MS before and after hemodialysis); assay type: in vivo, human; details: hemodialysis patients, serum before vs after hemodialysis
# Procedure: Serum samples were obtained from 40 hemodialysis patients before and after hemodialysis. All patients were receiving hemodialysis treatment three times a week. […] Serum samples were separated by centrifugation (3,000 rpm) and stored at −80° C. until assayed.
# SELDI analysis was performed according to the manufacturer's manual, with some modifications. In brief, serum and urine samples were diluted 20-fold and 10-fold, respectively, with binding buffer (phosphate buffered saline, pH 7.4). Using a bioprocessor, 40 μl of diluted samples were applied onto different arrays of an IMAC 30-Cu chip pretreated with 100 mM copper sulfate binding buffer and the chip was incubated at room temperature for 30 min with constant horizontal shaking. For confirmation of the reproducibility, each sample was applied to two separate spots on an IMAC 30-Cu chip. Unbound proteins were removed by washing three times with binding buffer for 5 min. The arrays were rinsed twice with 400 μl of water, were air-dried, and 0.5 μl of alpha-cyano-4-hydroxy-cinnamic acid (CHCA; Ciphergen) in 50% acetonitrile and 0.5% trifluoroacetic acid was added twice onto the surface of the chip. Next, the arrays were analyzed using the Ciphergen ProteinChip® Reader PBS II. The proteins with CHCA were ionized and their molecular masses were determined by TOF analysis. The mass-to-charge ratio (m/z) of each of the proteins/peptides captured on the array surface was determined according to externally calibrated standards: Arg8-vasopressin (1,084.25 Da), somatostatin (1,637.9 Da), dynorphin (2,147.5 Da), bovine insulin beta-chain (3,495.94 Da), human insulin (5,807.65 Da), bovine ubiquitin (8,564.8 Da), and bovine cytochrome C (12,230.9 Da). The mass spectra of the samples were generated using an average of 80 laser shots at a laser intensity of 180 and a detector sensitivity of 10. Synthetic hepcidin-25 (Peptide Institute Inc, Osaka) was used as a marker of 2,789 Da. […]
# [3] = case 1, day 3 after tocilizumab
compound,measurement,setting,value
[Fe] [iron],"expression of the serum 2,192 m/z peak (hepcidin-20)",[1]; i.v. iron for eight weeks,increased
same,"intensity of the serum peak at 2,789 m/z (hepcidin-25)",[1]; i.v. iron for eight weeks,increased gradually
same,serum ferritin level after iron administration,"[1]; increased from 11.3 ng/ml, 40 mg iron i.v. twice a week for eight weeks, person on hemodialysis",273 ng/mL
hepcidin,half-life of hepcidin in serum,IL-6 receptor; inferred from the drop in hepcidin after tocilizumab,short
"hepcidin-20 (ICIFCCGCCHRSKCGMCCKT; listed as Homo sapiens) [2,192 m/z]",removal rate by hemodialysis,[2],45±19%
"hepcidin-25 [2,789 m/z]",removal rate by hemodialysis,[2],46±23%
same,removal rate by hemodialysis,[2]; listed as hepcidin-25,46%
tocilizumab,serum hepcidin-25 level,"IL-6 receptor; both Castleman's disease cases, within a single day after the first dose of tocilizumab",downregulation; also recorded: drastically reduced
same,urine level of hepcidin-20,IL-6 receptor; [3],dramatically reduced
same,urine level of hepcidin-25,IL-6 receptor; [3],dramatically reduced
same,"high CRP levels, anemia, and hypoalbuminemia","IL-6 receptor; cases 1 and 2, up to 14 days after start of treatment",alleviated
same,serum ferritin level,IL-6 receptor; cases 1 and 2 after tocilizumab,reduced slowly
